T1: S5a, P55036
T1 chain: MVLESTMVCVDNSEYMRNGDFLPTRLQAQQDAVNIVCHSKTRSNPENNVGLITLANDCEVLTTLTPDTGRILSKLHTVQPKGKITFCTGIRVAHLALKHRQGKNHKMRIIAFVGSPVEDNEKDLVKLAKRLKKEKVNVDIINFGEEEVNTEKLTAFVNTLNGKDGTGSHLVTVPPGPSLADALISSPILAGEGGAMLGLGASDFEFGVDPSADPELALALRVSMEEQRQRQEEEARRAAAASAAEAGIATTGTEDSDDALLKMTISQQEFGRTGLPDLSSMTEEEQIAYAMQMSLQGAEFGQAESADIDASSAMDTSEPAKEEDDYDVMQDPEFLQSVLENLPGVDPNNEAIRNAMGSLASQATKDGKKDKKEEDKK

B1: GST-Siah2 (protein)
chain: MSRPSSTGPSANKPCSKQPPPQPQHTPSPAAPPAAATISAAGPGSSAVPAAAAVISGPGGGGGAGPVSPQHHELTSLFECPVCFDYVLPPILQCQAGHLVCNQCRQKLSCCPTCRGALTPSIRNLAMEKVASAVLFPCKYATTGCSLTLHHTEKPEHEDICEYRPYSCPCPGASCKWQGSLEAVMSHLMHAHKSITTLQGEDIVFLATDINLPGAVDWVMMQSCFGHHFMLVLEKQEKYEGHQQFFAIVLLIGTRKQAENFAYRLELNGNRRRLTWEATPRSIHDGVAAAIMNSDCLVFDTAIAHLFADNGNLGINVTISTCCP
B2: GST-E6AP (protein)
chain: MEKLHQCYWKSGEPQSDDIEASRMKRAAAKHLIERYYHQLTEGCGNEACTNEFCASCPTFLRMDNNAAAIKALELYKINAKLCDPHPSKKGASSAYLENSKGAPNNSCSEIKMNKKGARIDFKDVTYLTEEKVYEILELCREREDYSPLIRVIGRVFSSAEALVQSFRKVKQHTKEELKSLQAKDEDKDEDEKEKAACSAAAMEEDSEASSSRIGDSSQGDNNLQKLGPDDVSVDIDAIRRVYTRLLSNEKIETAFLNALVYLSPNVECDLTYHNVYSRDPNYLNLFIIVMENRNLHSPEYLEMALPLFCKAMSKLPLAAQGKLIRLWSKYNADQIRRMMETFQQLITYKVISNEFNSRNLVNDDDAIVAASKCLKMVYYANVVGGEVDTNHNEEDDEEPIPESSELTLQELLGEERRNKKGPRVDPLETELGVKTLDCRKPLIPFEEFINEPLNEVLEMDKDYTFFKVETENKFSFMTCPFILNAVTKNLGLYYDNRIRMYSERRITVLYSLVQGQQLNPYLRLKVRRDHIIDDALVRLEMIAMENPADLKKQLYVEFEGEQGVDEGGVSKEFFQLVVEEIFNPDIGMFTYDESTKLFWFNPSSFETEGQFTLIGIVLGLAIYNNCILDVHFPMVVYRKLMGKKGTFRDLGDSHPVLYQSLKDLLEYEGNVEDDMMITFQISQTDLFGNPMMYDLKENGDKIPITNENRKEFVNLYSDYILNKSVEKQFKAFRRGFHMVTNESPLKYLFRPEEIELLICGSRNLDFQALEETTEYDGGYTRDSVLIREFWEIVHSFTDEQKRLFLQFTTGTDRAPVGGLGKLKMIIAKNGPDTERLPTSHTCFNVLLLPEYSSKEKLKERLLKAITYAKGFGML
B3: GST-Murf1 (protein)
chain: MDYKSSLIQDGNPMENLEKQLICPICLEMFTKPVVILPCQHNLCRKCANDIFQAANPYWTSRGSSVSMSGGRFRCPTCRHEVIMDRHGVYGLQRNLLVENIIDIYKQECSSRPLQKGSHPMCKEHEDEKINIYCLTCEVPTCSMCKVFGIHKACEVAPLQSVFQGQKTELNNCISMLVAGNDRVQTIITQLEDSRRVTKENSHQVKEELSQKFDTLYAILDEKKSELLQRITQEQEKKLSFIEALIQQYQEQLDKSTKLVETAIQSLDEPGGATFLLTAKQLIKSIVEASKGCQLGKTEQGFENMDFFTLDLEHIADALRAIDFGTDEEEEEFIEEEDQEEEESTEGKEEGHQ
B4: GST-Nedd4 (protein)
chain: MATCAVEVFGLLEDEENSRIVRVRVIAGIGLAKKDILGASDPYVRVTLYDPMNGVLTSVQTKTIKKSLNPKWNEEILFRVHPQQHRLLFEVFDENRLTRDDFLGQVDVPLYPLPTENPRLERPYTFKDFVLHPRSHKSRVKGYLRLKMTYLPKTSGSEDDNAEQAEELEPGWVVLDQPDAACHLQQQQEPSPLPPGWEERQDILGRTYYVNHESRRTQWKRPTPQDNLTDAENGNIQLQAQRAFTTRRQISEETESVDNRESSENWEIIREDEATMYSNQAFPSPPPSSNLDVPTHLAEELNARLTIFGNSAVSQPASSSNHSSRRGSLQAYTFEEQPTLPVLLPTSSGLPPGWEEKQDERGRSYYVDHNSRTTTWTKPTVQATVETSQLTSSQSSAGPQSQASTSDSGQQVTQPSEIEQGFLPKGWEVRHAPNGRPFFIDHNTKTTTWEDPRLKIPAHLRGKTSLDTSNDLGPLPPGWEERTHTDGRIFYINHNIKRTQWEDPRLENVAITGPAVPYSRDYKRKYEFFRRKLKKQNDIPNKFEMKLRRATVLEDSYRRIMGVKRADFLKARLWIEFDGEKGLDYGGVAREWFFLISKEMFNPYYGLFEYSATDNYTLQINPNSGLCNEDHLSYFKFIGRVAGMAVYHGKLLDGFFIRPFYKMMLHKPITLHDMESVDSEYYNSLRWILENDPTELDLRFIIDEELFGQTHQHELKNGGSEIVVTNKNKKEYIYLVIQWRFVNRIQKQMAAFKEGFFELIPQDLIKIFDENELELLMCGLGDVDVNDWREHTKYKNGYSANHQVIQWFWKAVLMMDSEKRIRLLQFVTGTSRVPMNGFAELYGSNGPQSFTVEQWGTPEKLPRAHTCFNRLDLPPYESFEELWDKLQMAIENTQGFDGVD
B5: His-CHIP (protein)
chain: MKGKEEKEGGARLGAGGGSPEKSPSAQELKEQGNRLFVGRKYPEAAACYGRAITRNPLVAVYYTNRALCYLKMQQHEQALADCRRALELDGQSVKAHFFLGQCQLEMESYDEAIANLQRAYSLAKEQRLNFGDDIPSALRIAKKKRWNSIEERRIHQESELHSYLSRLIAAERERELEECQRNHEGDEDDSHVRAQQACIEAKHDKYMADMDELFSQVDEKRKKRDIPDYLCGKISFELMREPCITPSGITYDRKDIEEHLQRVGHFDPVTRSPLTQEQLIPNLAMKEVIDAFISENGWVEDY

Target: T1, S5a, P55036

Protein | Ubiquitinated S5a? (in vitro ubiquitination assay, Western blot with anti-S5a)
B1 | Yes (low)
B2 | Yes
B3 | Yes
B4 | Yes
B5 | Yes

Source: patent US20090226946
